According to the supplement of paper PMC9170038:

System: MS2 coat protein
Assay: apparent KD of MS2 coat protein; designed switch direction (-1 OFF switch, 1 ON switch): -1; higher = weaker reporter binding
How it was run: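 Each step of the titration lasted 0.8–1.5 h at the lowest concentration and 10–20 min at the highest. The protein, SNAP-549-labelled MS2 coat protein, went from 0.7 or 1.5 nM doubling to 3 µM over RNA switches transcribed on Illumina chips by stalled E. coli RNA polymerase. Normalised cluster fluorescence was curve-fitted, and the per-design median over clusters is given as apparent KD.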

[1] = Eterna round: R95, input ligand: microRNA oligo, concentration not stated
[2] = input ligand: microRNA oligo, concentration not stated
[3] = Eterna round: R95, input ligand: FMN 200 uM
[4] = Eterna round: R95, input ligand: none

Sequence | apparent KD of MS2 coat protein (input ligand: FMN 200 uM) [nM] | apparent KD of MS2 coat protein (input ligand: none) [nM] | apparent KD of MS2 coat protein [1] [nM] | apparent KD of MS2 coat protein [2] [nM] | apparent KD of MS2 coat protein [3] [nM] | apparent KD of MS2 coat protein [4] [nM]
UUCACGUCAGGAUAUCCAAAGUUCCGAAAUAACGGUACUUUGGAGAAGGGACAUGAGGAUCACCCAUGUCCUCG [LRO-Excl4-17-Nando 22 Mod] (Eterna round: R97, puzzle: Exclusion 4) | 40.3 | 22 | – | – | – | –
UUCAUGUUAGGAUAUUCCGCCACAGAGAAAGACUGUGGAAUGAAGAAGGGACAUGAGGAUCACCCAUGUUCCAA [EX4 A.5] (Eterna round: R97, puzzle: Exclusion 4) | 14.2 | 14.3 | – | – | – | –
UUCCUACAUGAGGAUCACCCAUGUCAGGAUAUCUCCUCACUGCGCUUGCGCAGUGAAUAGAGAAGGGACAGGCU [JL ViennaUCT Aner mod 1] (puzzle: Exclusion 1) | – | – | 15.9 | – | – | –
UUCGGCGCAGGAUAUACAGUUUUGUGUUGAAUCGGCGCGAAACAUGAGGAUCACCCAUGUAGAAGGGUGUUGAA [-24.2, -22.3 kcal, A 27%] (Eterna round: R97, puzzle: Exclusion 2) | 736 | 1220 | – | – | – | –
UUCGUGCAGCUUUGCUGUACGCGUACAUGAGGAUCACCCAUGUAGGAUAUGGUACGCUUUGCGUGCUAGAAGGAUAUGGAGAGG [JL EXNG3 1.34] (Eterna round: R96, puzzle: Exclusion NG 3) | 62.9 | 37.6 | – | 28.7 | – | –
UUCGUGCAGCUUUGCUGUACGCGUACAUGAGGAUCACCCAUGUAGGAUAUGGUAGGCAAAGCUUACUAGAAGGAUAUGGUGAGC [Mat - Exclusion NG 3 - Mod of JL - D79] (Eterna round: R96, puzzle: Exclusion NG 3) | 30.3 | 21.4 | – | 15.5 | – | –
UUCGUGCAGCUUUGCUGUACGCGUACAUGAGGAUCACCCAUGUAGGAUAUGGUAGGCUUUGCUUACUAGAAGGAUAGUGUGAUC [JL EXNG3 1.30] (Eterna round: R96, puzzle: Exclusion NG 3) | 137 | 88.7 | – | 123 | – | –
UUCUUGCAAGGAUAUGAUUUAAGUAACAUGAGGAUCACCCAUGUUUUUCCGUUGUUAUGUUCAGAAGGUGCGUGAU [JR_E5_Sub021] (puzzle: Exclusion 5) | – | – | 54.2 | – | – | –
UUCUUGGCAGGAUAUGCUUUUUUAGACAUGAGGAUCACCCAUGUGAUGAUUAUUGGUUUUGCAGAAGGGCCUUAAU [JR_E5_Sub041] (puzzle: Exclusion 5) | – | – | 49.4 | – | – | –
UUGAAGUAAGGAUAUACAUGAGGAUCACCCAUGUAAAGGAAAGUAAUGGGAGUAGGAAGUAGAAGGUACGAGGA [JR_Exclu3_Sub062] (puzzle: Exclusion 3) | – | – | 66.6 | – | 49 | 134
UUGACCCACGUCAGGAUAUCAAGAAAAGAGGCUCUUGAGAAGGGACAUGAGGAUCACCCAUGUAAGAAAUAAAU [Qumabibe] (puzzle: Brourd's mod of Exclusion 4) | – | – | 28.4 | – | 101 | 34.6
UUGAUACAUACCUCCAUAAACAUGAGGAUCACCCAUGUAAGUGAGGAUAUAGAUUGAUUAGUAUACUAGAAGGCACUUAGAUAU [JR_ExcNG3_Sub044] (Eterna round: R96, puzzle: Exclusion NG 3) | 11.6 | 13.3 | – | 8.91 | – | –
UUGAUGUCAUCAGGAUAUAGUAUUUAAGACAUAUAUUUUUUCAAACAUGAGGAUCACCCAUGUCGCUAGAAGGGAUUAUAGAUU [JR_ExcNG2_Sub082] (Eterna round: R96, puzzle: Exclusion NG 2) | – | – | – | 29.6 | – | –
UUGCAGUCGUCAGGAUAUAGUAUUACGGCCUUUCAUUUCUUCAUACAUGAGGAUCACCCAUGUCGCUAGAAGGGCUUCUCGCUU [salish99_ExNG2_r04_109] (Eterna round: R96, puzzle: Exclusion NG 2) | 15.3 | 17.6 | – | 14.6 | – | –
UUGCCACAUGAGGAUCACCCAUGUGAGGAUAUGGCCCGCCCGGCGUGUGCUGGUUUUGUCAGAAGGCGCGUGGG [salish99_ex1_r4_029] (Eterna round: R97, puzzle: Exclusion 1) | 52.4 | 27.9 | – | – | – | –
UUGCCACAUGAGGAUCACCCAUGUGAGGAUAUGGCCUGUUUGGAGUGUGCUGGUUCUGUCAGAAGGCGCGUGGG [salish99_ex1_r4_033] (Eterna round: R97, puzzle: Exclusion 1) | 49.5 | 33.6 | – | – | – | –
UUGCUCGUCUUGCUUCCUAACAUGAGGAUCACCCAUGUCGACGGUGAGACGCAAGAGCCAUCUCGCCGUUGAUCGUC [Eternabot (Original) Solution 4] (Eterna round: R97, puzzle: Sensor, turn-off variant 1) | 134 | 159 | – | – | – | –
UUGGUGUCAGGAUAUGCACAGGUCGCACAAAUUGCAGCCUAGCAGAAGGGACAUGAGGAUCACCCAUGUACUCU [EX4 B.21] (Eterna round: R97, puzzle: Exclusion 4) | 30 | 18.8 | – | – | – | –
UUGGUGUCAGGAUAUGCUUAAUAUAUUUUAUUAUAAUAUAUACAUGAGGAUCACCCAUGUAGAAGGGACAUUGU [LRO-Excl2-07-Fireball XL5] (Eterna round: R97, puzzle: Exclusion 2) | 30.2 | 45.8 | – | – | – | –
UUGUAGUUUGUAGGAUAUGGUUAUGUAUGUAAUCUAGAAGGACAUGAGGAUCACCCAUGUGGAGGUAAGUUGGGAAGAAGUAAU [random1] (Eterna round: R96, puzzle: Exclusion NG 1) | 55.6 | 56.4 | – | 30.8 | – | –
UUGUGCACGCUGCGGUCCUACAUGAGGAUCACCCAUGUGGUCUGGUGGCGUGGGUCACCGGACUUGGCUCGUCUUGA [salish99_S_TOV1_R5_061] (Eterna round: R97, puzzle: Sensor, turn-off variant 1) | 52.7 | 57.8 | – | – | – | –
UUGUUACAUGAGGAUCACCCAUGUGAGGAUAUGAGUCAGUCACGGUGACGUGGCUGACUCAGAAGGCACAAAGG [Mat - Exclusion 1 - JL Mod - D40] (Eterna round: R97, puzzle: Exclusion 1) | 310 | 120 | – | – | – | –
UUGUUACGAUUAGGAUAUUAUAGAUUGAAUAGUAUGAUUUACAUGAGGAUCACCCAUGUUACAUUUAAGAAGGAAUCGAAUUAU [JR_ExcNG2_Sub089] (Eterna round: R96, puzzle: Exclusion NG 2) | – | – | – | 16.1 | – | –
